# Measured values from patent US5705609A, “Decorin fragments inhibiting cell regulatory factors” (La Jolla Cancer Research Foundation, priority 1995, dated 1998).
# Entries after “also recorded” stand apart in the source; their conditions may differ.
# B1: decorin isolated from bovine skin (PGII): decorin isolated from bovine skin (protein, UniProt P21793 31-360, looked up)
# Decorin: DEASGIGPEEHFPEVPEIEPMGPVCPFRCQCHLRVVQCSDLGLEKVPKDLPPDTALLDLQNNKITEIKDGDFKNLKNLHTLILINNKISKISPGAFAPLVKLERLYLSKNQLKELPEKMPKTLQELRVHENEITKVRKSVFNGLNQMIVVELGTNPLKSSGIENGAFQGMKKLSYIRIADTNITTIPQGLPPSLTELHLDGNKITKVDAASLKGLNNLAKLGLSFNSISAVDNGSLANTPHLRELHLNNNKLVKVPGGLADHKYIQVVYLHNNNISAIGSNDFCPPGYNTKKASYSGVSLFSNPVQYWEIQPSTFRCVYVRAAVQLGNYK
# B2: mutated decorin core protein: decorin core protein with serine-4 mutated, lacking glycosaminoglycan (protein)
# chain: DEATGIGPEVPDDRDFEPSLGPVCPFRCQCHLRVVQCSDLGLDKVPKDLPPDTTLLDLQNNKITEIKDGDFKNLKNLHALILVNNKISKVSPGAFTPLVKLERLYLSKNQLKELPEKMPKTLQELRAHENEITKVRKVTFNGLNQMIVIELGTNPLKSSGIENGAFQGMKKLSYIRIADTNITSIPQGLPPSLTELHLDGNKISRVDAASLKGLNNLAKLGLSFNSISAVDNGSLANTPHLRELHLDNNKLTRVPGGLAEHKYIQVVYLHNNNISVVGSSDFCPPGHNTKKASYSGVSLFSNPVQYWEIQPSTFRCVYVRSAIQLGNYK
# B3: chondroitinase ABC-digested decorin: decorin core protein prepared by chondroitinase ABC digestion (protein)
# chain: B2 chain
# B4: Biglycan isolated from bovine articular cartilage: biglycan isolated from bovine articular cartilage (protein)
# chain: DEEASGAETTSGIPDLDSLPPTYSAMCPFGCHCHLRVVQCSDLGLKAVPKEISPDTTLLDLQNNDISELRKDDFKGLQHLYALVLVNNKISKIHEKAFSPLRKLQKLYISKNHLVEIPPNLPSSLVELRIHDNRIRKVPKGVFSGLRNMNCIEMGGNPLENSGFEPGAFDGLKLNYLRISEAKLTGIPKDLPETLNELHLDHNKIQAIELEDLLRYSKLYRLGLGHNQIRMIENGSLSFLPTLRELHLDNNKLSRVPAGLPDLKLLQVVYLHTNNITKVGVNDFCPVGFGVKRAYYNGISLFNNPVPYWEVQPATFRCVTDRLAIQFGNYKK
# modifications: intact proteoglycan (carries glycosaminoglycan)
# Target: TGFβ-1 (Homo sapiens, UniProt P01137)
# Sequence (P01137 279-390 limits assumed, species assumed): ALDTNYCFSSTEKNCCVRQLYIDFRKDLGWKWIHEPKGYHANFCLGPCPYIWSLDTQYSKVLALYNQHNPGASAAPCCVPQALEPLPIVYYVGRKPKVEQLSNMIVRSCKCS
# Assay: Microtiter binding assay: [125I]-TGFβ-1 binding to decorin-coated wells and competition
# Set-up: contains a major band at 25 kd; This band represents the native TGFβ-1 dimer; purchased Calbiochem, La Jolla, Calif
# Settings: for inhibition of [125I]-TGFβ-1 binding to decorin-coated wells by core proteins: core proteins / chondroitinase ABC-treated, 4° C. overnight (FIG. 3B); for inhibition of [125I]-TGFβ-1 binding to decorin-coated wells: intact proteoglycans, 37° C. 4 hours (FIG. 3A)
# Protocol: The binding of TGFβ-1 to decorin was also examined in a microtiter binding assay. To perform the assay, the wells of a 96-well microtiter plate were coated overnight with 2μg/ml of recombinant decorin in 0.1M sodium carbonate buffer, pH 9.5. The wells were washed with PBS containing 0.05% Tween (PBS/Tween) and samples containing 5×10^4 cpm of [^125 I]-TGFβ-1 and various concentrations of competitors in PBS/Tween were added to each well. The plates were then incubated at 37° C. for 4 hours (at 4° C. overnight in experiments with chondroitinase ABC-digested proteoglycans), washed with PBS/Tween and the bound radioactivity was solubilized with 1% SDS in 0.2M NaOH. Total binding without competitors was about 4% under the conditions used. Nonspecific binding, determined by adding 100-fold molar excess of unlabeled TGFβ-1 over the labeled TGFβ-1 to the incubation mixture, was about 13% of total binding. This assay was also used to study the ability of other decorin preparations and related proteins to compete with the interaction.
# Decorin isolated from bovine skin and biglycan isolated from bovine articular cartilage (PGI and PGII, obtained from Dr. Lawrence Rosenberg, Monteflore Medical Center, N.Y.; and described in Rosenberg et al., J. Biol. Chem. 250:6304-6313, (1985), incorporated by reference herein), chicken cartilage proteoglycan (provided by Dr. Paul Goetinck, La Jolla Cancer Research Foundation, La Jolla, Calif., and described in Goetinck, P. F., in THE GLYCOCONJUGATES, Vol. III, Horwitz, M. I., Editor, pp. 197-217, Academic Press, NY). For the preparation of core proteins, proteoglycans were digested with chondroitinase ABC (Seikagaku, Tokyo, Japan) by incubating 500 μg of proteoglycan with 0.8 units of chondroitinase ABC in 250 μl of 0.1M Tris/Cl, pH 8.0, 30 mM sodium acetate, 2 mM PMSF, 10 mM N-ethylmalelmide, 10 mM EDTA, and 0.36 mM pepstatin for 1 hour at 37° C. Recombinant decorin and decorin isolated from bovine skin (PGII) inhibited the binding of [^125 I]-TGFβ-1, as expected (FIG. 3A). […] This notion was further supported by competition experiments with the mutated decorin core protein (not shown) and chondroitinase ABC-digested decorin and biglycan (FIG.3B). Each of these proteins was inhibitory, whereas cartilage proteoglycan core protein was not.
Molecule,inhibition of [125I]-TGFβ-1 binding to decorin-coated wells by core proteins,inhibition of [125I]-TGFβ-1 binding to decorin-coated wells,binding of [125I]-TGFβ-1 to microtiter wells coated with the protein (protein coated on wells)
"Bovine serum albumin treated with chondroitinase ABC: BSA treated with chondroitinase ABC, control [reference compound]",did not shown any inhibition,,
Bovine serum albumin: bovine serum albumin control [reference compound],,did not shown any inhibition,
B1,,inhibited,
B2,inhibitory,,
B3,inhibitory; also recorded: somewhat more active than the intact proteoglycans,,
B4,,as effective an inhibitor as decorin,bound
